Assay results from paper PMC2944823, “Structural Basis for the Secretion of EvpC: A Key Type VI Secretion System Protein from Edwardsiella tarda” (PLoS ONE, 2010).
Values joined by “and” are separate entries in the source; they are usually repeats but may differ in a detail not shown here. Identical values can stand only once.

Tests used:
[1] = biological target: the molecule itself; experiment: AUC; sedimentation velocity, ~2 mg/ml (methods: 2.5 mg/ml), 10 mM Tris-HCl pH 7.0, 200 mM NaCl, with and without DTT, 40,000 rpm, 20°C, absorbance at 280 nm, Sedfit; self-association, dimer and hexamer
[2] = biological target: the molecule itself; experiment: dynamic light scattering; DynaPro instrument, room temperature, EvpC at 6 mg/ml; polydispersity 5%
[3] = biological target: the molecule itself; experiment: SEC; gel filtration (Hiload 16/60 Superdex 75) of EvpC wild type and mutants at 2 mg/ml; self-association, hexamer

Row | Protein | stoichiometry N [1] | stoichiometry N [2] | stoichiometry N [3]
1 | EvpC from Edwardsiella tarda PPD130/91, wild type, recombinant with 6His tag at C terminus (pETMevpC) (natural protein, selenomethionine (cells grown in defined M9 medium supplemented with 25 mg/L SelMet), EvpC, Hcp homolog of the type VI secretion system (EVP cluster), Edwardsiella tarda PPD130/91; evpC gene amplified from genomic DNA; crystal model holds Ala2 to Lys163; K161-K163 are called the C-terminal residues and the model ends at Lys163, so the whole protein (163 residues) is likely. pETM is a pET32 derivative; no other vector-derived residues are told; also called wild type EvpC; Hcp …) MAFDTYIKLDKVDGESTDDKHKKWIEVLGFAWGAGNECTMESGTQGLNTGKAMMSVLRVTKWMDCASVKLASAAVQGQNFPTLELEICTQAGDKFAFCIYKFTHVAVSSYQCSGATGGSDRPQETIDFAYKEVTWEYVPQDQNGKAGGKIGPEGWSLITNKKK | 2 and 6 | 12 | –
2 | EvpC D4A E15A double mutant, 6His tag at C terminus (pETMevpC D4AE15A) (natural protein, EvpC, Edwardsiella tarda PPD130/91, with D4 and E15 substituted with Ala; The text speaks only of 'double' mutants for the gel filtration; source: expressed (pETM plasmid)) MAFATYIKLDKVDGASTDDKHKKWIEVLGFAWGAGNECTMESGTQGLNTGKAMMSVLRVTKWMDCASVKLASAAVQGQNFPTLELEICTQAGDKFAFCIYKFTHVAVSSYQCSGATGGSDRPQETIDFAYKEVTWEYVPQDQNGKAGGKIGPEGWSLITNKKK | – | – | 6
3 | EvpC E15A E26A double mutant, 6His tag at C terminus (pETMevpC E15AE26A) (natural protein, EvpC, Edwardsiella tarda PPD130/91, with E15 and E26 substituted with Ala; The text speaks only of 'double' mutants for the gel filtration; source: expressed (pETM plasmid)) MAFDTYIKLDKVDGASTDDKHKKWIAVLGFAWGAGNECTMESGTQGLNTGKAMMSVLRVTKWMDCASVKLASAAVQGQNFPTLELEICTQAGDKFAFCIYKFTHVAVSSYQCSGATGGSDRPQETIDFAYKEVTWEYVPQDQNGKAGGKIGPEGWSLITNKKK | – | – | 6
4 | EvpC D4A E26A double mutant, 6His tag at C terminus (pETMevpC D4AE26A) (natural protein, EvpC, Edwardsiella tarda PPD130/91, with D4 and E26 substituted with Ala; The text speaks only of 'double' mutants for the gel filtration; source: expressed (pETM plasmid)) MAFATYIKLDKVDGESTDDKHKKWIAVLGFAWGAGNECTMESGTQGLNTGKAMMSVLRVTKWMDCASVKLASAAVQGQNFPTLELEICTQAGDKFAFCIYKFTHVAVSSYQCSGATGGSDRPQETIDFAYKEVTWEYVPQDQNGKAGGKIGPEGWSLITNKKK | – | – | 6
5 | EvpC D4A E15A E26A triple mutant (natural protein, EvpC, Edwardsiella tarda PPD130/91, with D4, E15 and E26 substituted with Ala; also called N-terminal triple mutant; N-terminal mutant; source: expressed) MAFATYIKLDKVDGASTDDKHKKWIAVLGFAWGAGNECTMESGTQGLNTGKAMMSVLRVTKWMDCASVKLASAAVQGQNFPTLELEICTQAGDKFAFCIYKFTHVAVSSYQCSGATGGSDRPQETIDFAYKEVTWEYVPQDQNGKAGGKIGPEGWSLITNKKK | – | – | 6
6 | EvpC C-terminal deletion mutant (EvpC M1-N160), K161 K162 K163 deleted (domain or fragment, EvpC, Edwardsiella tarda PPD130/91, residues M1-N160, lacking the C-terminal K161, K162 and K163; also called EvpC 1-160; C-terminal mutant; source: expressed) MAFDTYIKLDKVDGESTDDKHKKWIEVLGFAWGAGNECTMESGTQGLNTGKAMMSVLRVTKWMDCASVKLASAAVQGQNFPTLELEICTQAGDKFAFCIYKFTHVAVSSYQCSGATGGSDRPQETIDFAYKEVTWEYVPQDQNGKAGGKIGPEGWSLITN | – | – | 6
